Assays:
[1] = biological target: NOTCH on human CD4+CD25- effector T cells; assay: cell-based or functional assay
[2] = system: CD4+CD25- T cell proliferation; assay: Suppression assay: CD4+CD25- T cells co-cultured with Treg plus anti-CD3, with or without g-secretase inhibitor, [3H]thymidine incorporation; format: cell-based, human; settings: for Treg-mediated suppression (percentage of inhibition of CD4+CD25- T cell proliferation): GSI added at the beginning of the coculture (10 μM), anti-CD3 1 μg/ml, 5 days, mean+/-SD
Experimental: FIG. 1: NOTCH signalling is involved in Treg mediated inhibition of anti-CD3 stimulated CD4^+CD25^− T cell proliferation • A) Various ratio of CD4^+CD25^− T cells and CD4^+CD25^high T cells were cultured for 5 days in coated wells with anti-CD3 (1 μg/ml) in the presence or not of inhibitor of g-secretase (GSI 10 μM). Percentages of inhibition were calculated from the raw data using the equations: 1—(mean cpm of co-culture wells divided by mean cpm of CD4^+CD25^− cells cultured alone)×100. The data represent the mean±SEM and are representative of 5 independent experiments. * indicates P<0.05. • B) CD4^+CD25^−T cells were cultured for 18 hours in coated wells with anti-CD3 and NOTCH ligands (5 μg/ml) or IgG control (5 μg/ml). Then, T cells were washed and incubated for 5 days in coated wells with anti-CD3 in the absence or presence of Treg at ratio 1:8. The data represent the mean±SEM of inhibition of T cell proliferation of 5 independent experiments.
Peripheral blood mononuclear cells were separated by Ficoll-Hypaque centrifugation (Amersham Biosciences) from buffy coats obtained from healthy blood donors (EFS, Créteil). CD4^+ CD25^− T cells and CD4^+CD25^high T cells were isolated using a CD4^+ T cell enrichment column and a human CD4^+CD25^+ Treg isolation kit purchased from Miltenyi Biotec. CD4^+CD25^− cells and CD4^+CD25^+ cells were enriched to greater than 95% purity. […]
A total of 2.5×10^4 CD4^+CD25^− T cells were cultured with various ratios of CD4^+CD25^high cells and 1 μg/ml of anti-CD3 for 5 days, in the presence or absence of 10 μm of the gamma-secretase inhibitor Compound E. A total of […] [^3H] thymidine (Amersham Pharmacia) was added to the wells during the last 16 hours of culture. The cells were then harvested and assessed for [^3H] thymidine incorporation using a liquid scintillation counter. Results were expressed as mean cpm of quadriplicate culture wells.
Percentage of inhibition was calculated as follows: 1−(mean cpm of co-culture wells divided by mean cpm of CD4^+CD25^− cells cultured alone)×100. […]

[3] = system: TGF-βRII RNA expression; assay: Quantitative real-time PCR of TGF-βRII transcripts in CD4+CD25- T cells; format: cell-based, human; settings: coated anti-CD3 and DL-4 or Jagged-1 for 3 hours, in the presence of GSI
Experimental: FIG. 3: TGF-βRII expression on effector T cells after NOTCH ligands exposure • A) CD4^+CD25^−T cells were purified using Miltenyi microbeads from PBMC and cultured for 3 hours in coated wells with anti-CD3 (200 ng/ml) and NOTCH ligands (5 μg/ml) or IgG control (5 μg/ml). Quantitative real-time PCR was performed to measure the transcripts levels of TGF-βRII. Data shown are mean±SEM and are representative of 4 independent experiments. * indicates P<0.05. • B) Protein levels of TGF-βRII in CD4^+CD25^−T cells stimulated to DL-1, DL-4 and Jagged-1 using FACS analysis. Mean of fluorescence are represented±SEM. * indicates P<0.05.
CD4^+CD25^− T cells were cultured for 3 hours in coated wells with anti-CD3 (200 ng/ml) and NOTCH ligands (5 μg/ml) or IgG control (5 μg/ml). Total RNA was extracted with Trizol (Invitrogen) and purified by chloroform extraction. RNA was then reverse transcribed using 1 mM oligodT and the Superscript™ HH Rnase H-reverse transcriptase (Invitrogen Life technologies) according to the manufacturer's instructions. Quantitative PCR was performed in a LightCycler System (Roche diagnostics) using a SYBR Green PCR kit from Roche Diagnostics. The cDNA input for each population was normalized to obtain equivalent signals with Splicing Factor 3A1 (SF3A1) used as housekeeping gene. Primers used were: […]
Active TGF-β mediates its biological functions by binding to TGF-β type I and type II receptors (TGF-βRII). Therefore, the effects of NOTCH activation on TGF-βRII expression of effector T cells were first investigated. […] This effect is abrogated in the presence of GSI (P<0.05 for comparison with culture performed without GSI vehicle).

Row | Percentages of inhibition of cell proliferation (CD4+CD25- T cells pre-exposed to ligand, co-cultured with Treg at ratio 1:8) [1] [%] | TGF-βRII RNA expression, fold increase against IgG control (real-time PCR, 3 hours) [1] [fold] | expression of TGF-βRII on CD4+CD25- T cells after 48 hours on ligand (flow cytometry, MFI; IgG control MFI 53) [1] [MFI] | mean inhibition of T cell proliferation (co-culture with Treg at ratio 1:16 on immobilized ligand) [1] [%] | percentage of inhibition of CD4+CD25- T cell proliferation with anti-CD3, ligand and TGF-β (0.1 ng/ml) [1] [%] | Compound | Treg-mediated suppression (percentage of inhibition of CD4+CD25- T cell proliferation) ([2]; Treg/Effector ratio 1:4) [%] | Treg-mediated suppression (percentage of inhibition of CD4+CD25- T cell proliferation) ([2]; Treg/Effector ratio 1:8) [%] | Effect on proliferation of CD4+CD25- T cells cultured alone ([2]; no Treg, data not shown) | Effect of GSI on the DL-4 / Jagged-1 induced increase in TGF-βRII RNA expression [3]
1 | 64.2 | 4.4 | 166 | 47 | 74.1 | DL-4-Fc (from UniProt Q9NR61 27-529) (Fc fusion) |  |  |  | 
2 | 64.8 |  | 85 |  | 42.9 | DL-1-Fc (from UniProt O00548 18-545) (Fc fusion) |  |  |  | 
3 | 65 | 2.8 | 130 | 65 | 87.8 | Jagged-1-Fc (from UniProt P78504 34-1067) (Fc fusion) |  |  |  | 
4 |  |  |  |  |  | C[C@H](NC(=O)Cc1cc(F)cc(F)c1)C(=O)N[C@H]1N=C(c2ccccc2)c2ccccc2N(C)C1=O [GSI, Compound E] | 46.9 | 49.3 | did not affect the proliferation | abrogated

Source: patent US20150140043A1, “IMMUNOMODULATORY METHODS USING NOTCH AGONISTS” (INSTITUT NATIONAL DE LA SANTE DE LA RECHERCHE MEDICAL …, priority 2012, published 2015)
